Reference: PMC10500007, “De novo design of highly selective miniprotein inhibitors of integrins αvβ6 and αvβ8” (Nature Communications, 2023)

Assays:
B8_BP_dslf = target: T1, B8_BP_dslf; test: BLI; Octet RED96; His-tagged and Avi-tagged minibinders immobilised on Ni-NTA and streptavidin sensor tips, dipped into wells with different concentrations of integrin; association 900 s, dissociation 1200 s; settings: both partners purified
T1 construct: de novo designed RGD miniprotein with redesigned, extended β-loop and the motif MAVY in place of LXX(L/I); For BLI His-tagged (Ni-NTA tips) or N-terminally Avi-tagged, biotinylated (streptavidin tips); The methods of model building name a design model 'B8_BP2_dslf'; also called MAVY; source: E. coli BL21(DE3*), purified (Ni-NTA, SEC); not shown: His tag, C-terminal, kept

B8_BP-LATY = target: T2, B8_BP-LATY; test: as above; settings: both partners purified
T2 construct: positions 13-16 worked out from the printed Y16; source: E. coli BL21(DE3*), purified (Ni-NTA, SEC); not shown: His tag, C-terminal, kept
T2 sequence (main, as listed by the source): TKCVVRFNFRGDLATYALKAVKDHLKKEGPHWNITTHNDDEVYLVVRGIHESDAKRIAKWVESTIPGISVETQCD

B1: human integrin αvβ8 (soluble, construct not stated) (complex)
chain 1: FNLDVDSPAEYSGPEGSYFGFAVDFFVPSASSRMFLLVGAPKANTTQPGIVEGGQVLKCDWSSTRRCQPIEFDATGNRDYAKDDPLEFKSHQWFGASVRSKQDKILACAPLYHWRTEMKQEREPVGTCFLQDGTKTVEYAPCRSQDIDADGQGFCQGGFSIDFTKADRVLLGGPGSFYWQGQLISDQVAEIVSKYDPNVYSIKYNNQLATRTAQAIFDDSYLGYSVAVGDFNGDGIDDFVSGVPRAARTLGMVYIYDGKNMSSLYNFTGEQMAAYFGFSVAATDINGDDYADVFIGAPLFMDRGSDGKLQEVGQVSVSLQRASGDFQTTKLNGFEVFARFGSAIAPLGDLDQDGFNDIAIAAPYGGEDKKGIVYIFNGRSTGLNAVPSQILEGQWAARSGCPPSFGYSMKGATDIDKNGYPDLIVGAFGVDRAILYRARPVITVNAGLEVYPSILNQDNKTCSLPGTALKVSCFNVRFCLKADGKGVLPRKLNFQVELLLDKLKQKGAIRRALFLYSRSPSHSKNMTISRGGLMQCEELIAYLRDESEFRDKLTPITIFMEYRLDYRTAADTTGLQPILNQFTPANISRQAHILL
chain 2: EDNRCASSNAASCARCLALGPECGWCVQEDFISGGSRSERCDIVSNLISKGCSVDSIEYPSVHVIIPTENEINTQVTPGEVSIQLRPGAEANFMLKVHPLKKYPVDLYYLVDVSASMHNNIEKLNSVGNDLSRKMAFFSRDFRLGFGSYVDKTVSPYISIHPERIHNQCSDYNLDCMPPHGYIHVLSLTENITEFEKAVHRQKISGNIDTPEGGFDAMLQAAVCESHIGWRKEAKRLLLVMTDQTSHLALDSKLAGIVCPNDGNCHLKNNVYVKSTTMEHPSLGQLSEKLIDNNINVIFAVQGKQFHWYKDLLPLLPGTIAGEIESKAANLNNLVVEAYQKLISEVKVQVENQVQGIYFNITAICPDGSRKPGMEGCRNVTSNDEVLFNVTVTMKKCDVTGGKNYAIIKPIGFNETAKIHI
B1 showed a Kd (B8_BP_dslf) of 1.9 nM and a Kd (B8_BP-LATY) of 0.5 nM.
